{"source": "paper PMC8710044", "about": "(Biochemical pharmacology, 2021)", "key": {"[1]": {"substrate": "Cc1c(Cl)cccc1Nc1ccccc1C(=O)O", "assay": "cells, lysate or membranes named", "conditions": "95% CI in parentheses, pH 7.4"}, "[2]": {"substrate": "Cc1ccc(Cl)c(Nc2ccccc2C(=O)O)c1Cl", "assay": "cells, lysate or membranes named", "conditions": "95% CI in parentheses, pH 7.4"}, "[3]": {"substrate": "Cc1ccc(Nc2c(F)cccc2Cl)c(CC(=O)O)c1", "assay": "cells, lysate or membranes named", "conditions": "95% CI in parentheses, pH 7.4"}, "[4]": {"substrate": "Cc1cccc(Nc2ccccc2C(=O)O)c1C", "assay": "Steady-state bioactivation kinetics", "assay_type": "in vitro ADME, human", "conditions": "other: CYP2C19, path 1, 2, 95% CI in parentheses, pH 7.4"}, "[5]": {"substrate": "O=C(O)COC(=O)Cc1ccccc1Nc1c(Cl)cccc1Cl", "assay": "Steady-state bioactivation kinetics", "assay_type": "in vitro ADME, human", "conditions": "other: CYP2C19, 95% CI in parentheses, pH 7.4"}, "[6]": {"substrate": "O=C(O)c1ccccc1Nc1cccc(C(F)(F)F)c1", "assay": "Steady-state bioactivation kinetics", "assay_type": "in vitro ADME, human", "conditions": "other: CYP2C19; metabolite M2/M4, path 1, 2; 95% CI in parentheses; pH 7.4"}, "[7]": {"substrate": "Cc1cccc(Nc2ccccc2C(=O)O)c1C", "assay": "Steady-state kinetics of overall NSAID metabolism", "assay_type": "in vitro ADME, human", "conditions": "other: overall metabolism (depletion) by CYP2C19; 95% CI in parentheses; pH 7.4"}, "[8]": {"substrate": "O=C(O)COC(=O)Cc1ccccc1Nc1c(Cl)cccc1Cl", "assay": "Steady-state kinetics of overall NSAID metabolism", "assay_type": "in vitro ADME, human", "conditions": "other: overall metabolism (depletion) by CYP2C19; 95% CI in parentheses; pH 7.4"}, "[9]": {"substrate": "O=C(O)c1ccccc1Nc1cccc(C(F)(F)F)c1", "assay": "Steady-state kinetics of overall NSAID metabolism", "assay_type": "in vitro ADME, human", "conditions": "other: overall metabolism (depletion) by CYP2C19; 95% CI in parentheses; pH 7.4"}, "[10]": {"conditions": "other: CYP2C19, metabolite M2/M4a, path 1, 2"}, "[11]": {"conditions": "other: CYP2C19, metabolite M2/M4b, path 1, 2"}, "[12]": {"conditions": "other: overall metabolism (depletion) by CYP2C19"}, "[13]": {"conditions": "other: CYP2C19, metabolite M2/M4, path 1, 2"}, "[14]": {"conditions": "other: CYP2C19, metabolite M6, path 3"}, "[15]": {"conditions": "other: CYP2C19, metabolite M6a, path 3"}, "[16]": {"conditions": "other: CYP2C19, metabolite M6b, path 3"}}}
{"protein": "CYP2C19 (Homo sapiens) (protein) MDPFVVLVLCLSCLLLLSIWRQSSGRGKLPPGPTPLPVIGNILQIDIKDVSKSLTNLSKIYGPVFTLYFGLERMVVLHGYEVVKEALIDLGEEFSGRGHFPLAERANRGFGIVFSNGKRWKEIRRFSLMTLRNFGMGKRSIEDRVQEEARCLVEELRKTKASPCDPTFILGCAPCNVICSIIFQKRFDYKDQQFLNLMEKLNENIRIVSTPWIQICNNFPTIIDYFPGTHNKLLKNLAFMESDILEKVKEHQESMDINNPRDFIDCFLIKMEKEKQNQQSEFTIENLVITAADLLGAGTETTSTTLRYALLLLLKHPEVTAKVQEEIERVIGRNRSPCMQDRGHMPYTDAVVHEVQRYIDLIPTSLPHAVTCDVKFRNYLIPKGTTILTSLTSVLHDNKEFPNPEMFDPRHFLDEGGNFKKSNYFMPFSAGKRICVGEGLARMELFLFLTFILQNFNLKSLIDPKDLDTTPVVNGFASVPPFYQLCFIPV", "values": [{"measurement": "Km", "setting": "[1]; [10]", "result": 7.4, "unit": "µM"}, {"measurement": "kcat", "setting": "[1]; [10]", "result": "2.6 (2.5–2.7) pmol/min/nmol protein"}, {"measurement": "Km", "setting": "[1]; [11]", "result": 11, "unit": "µM"}, {"measurement": "kcat", "setting": "[1]; [11]", "result": "3.9 (3.8–4.0) pmol/min/nmol protein"}, {"measurement": "Km", "setting": "[1]; [12]", "result": "110 (94–130) μM"}, {"measurement": "kcat", "setting": "[1]; [12]", "result": "2070 (1950–2210) pmol/min/nmol protein"}, {"measurement": "Km", "setting": "[2]; [13]", "result": 5.8, "unit": "µM"}, {"measurement": "kcat", "setting": "[2]; [13]", "result": "3.1 (3.0–3.2) pmol/min/nmol protein"}, {"measurement": "Km", "setting": "[2]; [14]", "result": 18.9, "unit": "µM"}, {"measurement": "kcat", "setting": "[2]; [14]", "result": "64.2 (61.2–67.4) pmol/min/nmol protein"}, {"measurement": "kcat", "setting": "[2]; other: CYP2C19, metabolite M9, path 4", "result": "6.1 (5.7–6.4) pmol/min/nmol protein"}, {"measurement": "Km", "setting": "[2]; [12]", "result": "160 (130–190) μM"}, {"measurement": "kcat", "setting": "[2]; [12]", "result": "2400 (2210–2610) pmol/min/nmol protein"}, {"measurement": "Km", "setting": "[3]; [13]", "result": 36.8, "unit": "µM"}, {"measurement": "kcat", "setting": "[3]; [13]", "result": "2.5 (2.4–2.7) pmol/min/nmol protein"}, {"measurement": "Km", "setting": "[3]; [15]", "result": 47.6, "unit": "µM"}, {"measurement": "kcat", "setting": "[3]; [15]", "result": "1.8 (1.7–2.0) pmol/min/nmol protein"}, {"measurement": "Km", "setting": "[3]; [16]", "result": 115, "unit": "µM"}, {"measurement": "kcat", "setting": "[3]; [16]", "result": "2.4 (2.2–2.6) pmol/min/nmol protein"}, {"measurement": "Km", "setting": "[3]; [12]", "result": "77.2 (64–93) μM"}, {"measurement": "kcat", "setting": "[3]; [12]", "result": "2610 (2450–2790) pmol/min/nmol protein"}, {"measurement": "Km", "setting": "[4]; metabolite M2/M4a", "result": 10.8, "unit": "µM"}, {"measurement": "kcat", "setting": "[4]; metabolite M2/M4a", "result": "2.0 (1.9–2.1) pmol/min/nmol protein"}, {"measurement": "Km", "setting": "[4]; metabolite M2/M4b", "result": 13.6, "unit": "µM"}, {"measurement": "kcat", "setting": "[4]; metabolite M2/M4b", "result": "1.5 (1.4–1.6) pmol/min/nmol protein"}, {"measurement": "Km", "setting": "[5]; metabolite M2/M4, path 1, 2", "result": 18.8, "unit": "µM"}, {"measurement": "kcat", "setting": "[5]; metabolite M2/M4, path 1, 2", "result": "4.4 (4.2–4.7) pmol/min/nmol protein"}, {"measurement": "Km", "setting": "[5]; metabolite M6, path 3", "result": 74.4, "unit": "µM"}, {"measurement": "kcat", "setting": "[5]; metabolite M6, path 3", "result": "5.6 (5.2–6.1) pmol/min/nmol protein"}, {"measurement": "Km", "setting": "[5]; metabolite M9, path 4", "result": 8.9, "unit": "µM"}, {"measurement": "kcat", "setting": "[5]; metabolite M9, path 4", "result": "4.1 (3.9–4.4) pmol/min/nmol protein"}, {"measurement": "Km", "setting": "[6]", "result": 28.5, "unit": "µM"}, {"measurement": "kcat", "setting": "[6]", "result": "7.7 (7.4–8.1) pmol/min/nmol protein"}, {"measurement": "Km", "setting": "[7]", "result": "220 (180–260) μM"}, {"measurement": "kcat", "setting": "[7]", "result": "3060 (2830–3320) pmol/min/nmol protein"}, {"measurement": "Km", "setting": "[8]", "result": "380 (320–460) μM"}, {"measurement": "kcat", "setting": "[8]", "result": "3050 (2760–3410) pmol/min/nmol protein"}, {"measurement": "Km", "setting": "[9]", "result": "150 (120–180) μM"}, {"measurement": "kcat", "setting": "[9]", "result": "2500 (2310–2730) pmol/min/nmol protein"}]}
